Laboratory results as given in paper PMC10960872.

Key:
[1] = target: NanoBiT Gq: Gαq–LgBiT (wild type) co-expressed with Gβ1 and Gγ2, P50148;P62873;P59768; assay: NanoBiT assay (M3-SmBiT with Gαq–LgBiT, Gβ1, Gγ2), basal; conditions: absence of agonist; parent: est. 78 (WT 1:4, expression-matched; WT 1:1 = 100); read off a plot
[2] = target: NanoBiT Gq: Gαq–LgBiT (wild type) co-expressed with Gβ1 and Gγ2, P50148;P62873;P59768; assay: NanoBiT assay (M3-SmBiT with Gαq–LgBiT, Gβ1, Gγ2), ACh titration; conditions: titrated concentrations of acetylcholine; parent: est. -0.1 (WT 1:4, expression-matched; WT 1:1 = 0); read off a plot

Substance | percent of parent [1] [%RLU] | other: ΔpEC50 [2]
ssHA-FLAG-M3-SmBiT (wild type), P20309 M3-GS (C-tail KKKRRK to GSGSGS) | 50 | -0.3
ssHA-FLAG-M3-SmBiT (wild type), P20309 M3-6A (C-tail KKKRRK to AAAAAA) | 46 | -0.2
